Laboratory results as given in patent US7799901B2, “Modulators of the function of FAS receptors and other proteins” (Yeda Research and Development Co. Ltd., priority 1995, dated 2010).

T1: MORT1 (Homo sapiens, UniProt Q13158)
T1 sequence (Q13158 1-208): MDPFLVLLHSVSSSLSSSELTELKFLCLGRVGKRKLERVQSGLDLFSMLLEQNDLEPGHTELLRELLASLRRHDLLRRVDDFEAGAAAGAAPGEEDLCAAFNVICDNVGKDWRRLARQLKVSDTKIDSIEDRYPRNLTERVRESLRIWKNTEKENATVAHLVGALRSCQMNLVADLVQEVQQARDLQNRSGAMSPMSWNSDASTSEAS

T2: MORT-1 (Homo sapiens, UniProt Q13158, G32V)
T2 sequence (Q13158 with tags, fused parts or gaps G32V): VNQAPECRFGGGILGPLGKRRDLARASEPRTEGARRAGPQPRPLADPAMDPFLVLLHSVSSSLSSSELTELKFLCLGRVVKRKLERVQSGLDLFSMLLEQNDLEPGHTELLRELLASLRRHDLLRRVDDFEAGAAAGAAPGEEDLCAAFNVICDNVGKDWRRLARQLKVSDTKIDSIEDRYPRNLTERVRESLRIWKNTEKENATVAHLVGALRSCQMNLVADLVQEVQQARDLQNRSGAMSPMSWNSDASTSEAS

B1: MACHα1 (C360S): MACHα1 mutant in which the catalytic cysteine Cys360 is replaced by Ser (protein)
chain: MDFSRNLYDIGEQLDSEDLASLKFLSLDYIPQRKQEPIKDALMLFQRLQEKRMLEESNLSFLKELLFRINRLDLLITYLNTRKEEMERELQTPGRAQISAYRVMLYQISEEVSRSELRSFKFLLQEEISKCKLDDDMNLLDIFIEMEKRVILGEGKLDILKRVCAQINKSLLKIINDYEEFSKERSSSLEGSPDEFSNGEELCGVMTISDSPREQDSESQTLDKVYQMKSKPRGYCLIINNHNFAKAREKVPKLHSIRDRNGTHLDAGALTTTFEELHFEIKPHDDCTVEQIYEILKIYQLMDHSNMDCFICCILSHGDKGIIYGTDGQEAPIYELTSQFTGLKCPSLAGKPKVFFIQASQGDNYQKGIPVETDSEEQPYLEMDLSSPQTRYIPDEADFLLGMATVNNCVSYRNPAEGTWYIQSLCQSLRERCPRGDDILTILTEVNYEVSNKDDKKNMGKQMPQPTFTLRKKLVFPSD
B2: MORT-1: Mediator of Receptor-induced Toxicity; protein binding the intracellular domain of FAS-R, SEQ ID NO:2 (protein)
chain: T2 sequence (Q13158 with tags, fused parts or gaps G32V)
B3: MACHβ1: MACH isoform, cDNA SEQ ID NO: 4, amino acid SEQ ID NO: 5; lacks the CED3/ICE homology region (protein)
chain: MDFSRNLYDIGEQLDSEDLASLKFLSLDYIPQRKQEPIKDALMLFQRLQEKRMLEESNLSFLKELLFRINRLDLLITYLNTRKEEMERELQTPGRAQISAYRVMLYQISEEVSRSELRSFKFLLQEEISKCKLDDDMNLLDIFIEMEKRVILGEGKLDILKRVCAQINKSLLKIINDYEEFSKERSSSLEGSPDEFSNDFGQSLPNEKQTSGILSDHQQSQFCKSTGESAQTSQH

Tests used:
yeasts = experiment: Cytotoxic effect on transfected yeasts (yield of colonies); format: cell-based, yeast; settings: decrease in the yield of colonies; activation domain vector
Excerpt: To find out if MACHα1 can bind to MORT1, as does MACHβ1, the interaction of the proteins within transfected yeasts was first examined. […] This effect was manifested in a marked decrease in the yield of colonies in yeasts that expressed the protein in the activation domain (AD) vector (whose expression level is higher than that of the DNA binding domain (DBD) vector). On the other hand, […] in which the catalytic cysteine residue, Cys360, was replaced with Ser (MACHα1 (C360S)) was not cytotoxic to either mammalian cells (see below), or yeast. Like MACHβ1, MACHα1 (C360S) bound in tranfected yeast to MORT-1 and also to itself. It also bound to MACHβ1. […] The intensity of the lacZ-product color varied, however, among the yeast colonies; in yeasts tranfected with MACHα1 in both the AD and the DBD vectors no color product was observed, probably because of the cytotoxic effect of the wild-type MACHα1.

MORT1 = target: T1, MORT1; experiment: Co-immunoprecipitation with MORT-1 from 293-EBNA cell lysates; format: binding; set-up: expressed in transfected cells; host or cells: 293-EBNA; HeLa (detail in the same paragraph); settings: lysates of human embryonic kidney 293-EBNA cells
Description: Testing further if MACHα1 can bind to MORT1 also within mammalian cells, MACHα1 or MACHβ1, fused with the FLAG octapeptide was expressed, together with HA epitope-tagged MORT1 molecules. ^35[S] metabolically labeled MACHα1 and MACHβ1 fused at their N-termini to the FLAG octapeptide (FLAG-MACHα1 and β1), and MORT1 fused at its N terminus to the HA epitope (Field et al, 1988) were expressed in HeLa cells. Immunoprecipitation of the proteins from lysates of the cells was performed using mouse monoclonal antibodies against the FLAG octapeptide (M2; Eastman Kodak), HA epitope (12CA5, Field et al, 1988) or the p75 TNF receptor (#9, Bigda et al, 1994) as a control. The proteins were analyzed by SDS-polyacrylamide gel electrophoresis (12% acrylamide), followed by autoradiography. […] The effectivity of interaction of MACHα1 with MORT1 appeared to be lower than that of MACHβ1.

MORT-1 = target: T2, MORT-1; experiment: Two-hybrid β-galactosidase expression filter assay in SFY526 yeast, DNA-binding domain hybrid MORT-1; set-up: the full-length MORT-1 cDNA was used (MORT 1); expressed in transfected cells; host or cells: SFY526 yeast; settings: substance as activation domain hybrid
Excerpt: To isolate proteins interacting with the intracellular domain of the FAS-R, the yeast two-hybrid system was used (Fields and Song, 1989). […] In this system, the genes for the candidate interacting proteins are cloned into separate expression vectors. In one expression vector, the sequence of the one candidate protein is cloned in phase with the sequence of the GAL4 DNA-binding domain to generate a hybrid protein with the GAL4 DNA-binding-domain, and in the other vector, the sequence of the second candidate protein is cloned in phase with the sequence of the GAL4 activation domain to generate a hybrid protein with the GAL4-activation domain. The two hybrid vectors are then co-transformed into a yeast host strain having a lacZ or HIS3 reporter gene under the control of upstream GAL4 binding sites. Only those transformed host cells (cotransformants) in which the two hybrid proteins are expressed and are capable of interacting with each other, will be capable of expressing the reporter gene. […]
The yeast two-hybrid test was further applied to evaluate the specificity of binding of MACH to MORT-1, in particular, to define the region in MORT-1 to which MACH binds, as well as to determine which of the MACH ORFs interacts with MORT-1, the procedures being as set forth herein above in Examples 1 and 2. Briefly, various MORT-1 and MACH constructs were prepared for testing the interaction of the proteins encoded by the Gal4 DNA-binding domain and activation domain constructs within transfected SFY526 yeast cells as assessed by the β-galactosidase expression filter assay. […] In the assay, the development of color was determined, where the greater the color development, the greater the interaction between the constructs encoded by the DNA-binding domain and activation domain; Color development was depicted by symbols, where “+++” and “+” indicate the development of a strong color within 30 and 90 min. of the assay, respectively, and “−−−” indicates the lack of development of color within 24 hrs. of the assay. […]

Row | Molecule | cytotoxic effect on yeasts (yeasts) | coimmunoprecipitation with MORT-1 (MORT1) | development of color (interaction with DNA-binding domain hybrid) (MORT-1)
1 | MACHα1: MACH isoform, cDNA SEQ ID NO: 14, amino acid SEQ ID NO: 7; contains CED3/ICE homology region | significant cytotoxic effect |  | 
2 | B1 | not cytotoxic | coimmunoprecipitated | 
3 | B2 |  |  | +++ (“+++” and “+” indicate the development of a strong color within 30 and 90 min. of the assay, respectively)
4 | B3 |  | coimmunoprecipitated | +++ (“+++” and “+” indicate the development of a strong color within 30 and 90 min. of the assay, respectively)
